How the values were obtained:
Assay in all cases: IEDB peptide-MHC binding, purified MHC/competitive/radioactivity; ≥ and ≤ were set here for values at or beyond the usual limits of such assays
Conditions in all cases: source organism: Homo sapiens
[1] = biological target: HLA-A*11:01
[2] = biological target: HLA-A*03:01
[3] = biological target: HLA-B*07:02

SSSHWLRLPR was tested, and the IC50 [1] was 45.5 nM.

In the case of YMVPFIPLYR, the IC50 [2] is reported as 26.3 nM and the IC50 [1] is reported as 38.5 nM.

HTMEVTVYHR showed an IC50 [2] of 179 nM.

GTQCALTRR was tested, and the IC50 [1] was 31.3 nM.

For SIFEQWLRR, the IC50 [2] was 45.5 nM and the IC50 [1] was 4.6 nM.

Sequence VVLASLIYRR has an IC50 [2] of 161 nM and an IC50 [1] of 80.6 nM.

With LPHSSSHWL the IC50 [3] was 17.2 nM.

Work on LIGCWYCRRR yielded an IC50 [2] of 179 nM.

QTSAGHFPR gave an IC50 [1] of 16.1 nM.

Sequence AVVLASLIYR has an IC50 [1] of 3.5 nM.

Sequence VVLASLIYR has an IC50 [2] of 17.9 nM and an IC50 [1] of 3.6 nM.

— the Immune Epitope Database (IEDB)
